Laboratory results from patent US20220242961A1 (ABL BIO, published 2022).

How the values were obtained:
human 4-1 BB-Fc protein = target: T1, human 4-1 BB-Fc protein (human, UniProt Q07011 24-186); experiment: ELISA on plate-coated human 4-1BB-Fc (0.1 ug/ml), goat anti-human IgG-HRP, TMB
T1 construct: also called extracellular domain 4-1 BB antigen; not shown: Fc part
Protocol: To evaluate the antigen binding activity, the antibody candidates were subjected to ELISA test. Briefly, microtiter plates were coated with human 4-1 BB-Fc protein at 0.1 μg/ml in PBS, 100 μl/well at 4° C. overnight, then blocked with 100 μl/well of 5% BSA. Serial dilutions of antibodies obtained in Example 1.1 were added to each well and incubated for 1-2 hours at RT. The plates were washed with PBS/Tween and then incubate with goat-anti-human IgG antibody conjugated with Horse Radish Peroxidase (HRP) for 1 hour at RT. After washing, the plates were developed with TMB substrate and analyzed by spectrophotometer at OD 450-630 nm.

[1] = target: T2, 4-1BB (antigen of the Octet kinetics) (human, UniProt Q07011 24-186, limits assumed); experiment: Octet Red 96 kinetics
T2 construct: the whole entry is named
Source text: To explore the binding kinetics of the humanized antibody, this example performed the affinity ranking by using Octet Red 96.

| Binder | EC50 (read off the curve) (human 4-1 BB-Fc protein) [nM] | Kd [1] [nM] | koff [1] [s⁻¹] | kon [1] [M⁻¹ s⁻¹] |
| --- | --- | --- | --- | --- |
| 41B02 (antibody, human IgG4 S228P, lambda, V domains shown, also called anti-4-1BB antibody 41B02; 41B02 clone) VH: EVQLLESGGGLVQPGGSLRLSCAASGFTFSGYDMSWVRQAPGKGLEWVSVIYPDDGNTYYADSVKGRFTISRDNSKNTLYLQMNSLRAEDAAVYYCAKHGGQKPTTKSSSAYGMDGWGQGTLVTVSS VL: QSVLTQPPSASGTPGRRVTISCSGSSSNIGNNYVTWYQQLPGTAPKLLIYADSHRPSGVPDRFSGSKSGTSASLAISGLRSEDEADYYCATWDYSLSGYVFGGGTKLTVLG | ~0.03 |  |  |  |
| 41B02.01 (antibody, human IgG4 S228P, lambda, V domains shown) VH: EVQLLESGGGLVQPGGSLRLSCAASGFTFSGYDMSWVRQAPGKGLEWVSVIYPDDGNTYYADSVKGRFTISRDNSKNTLYLQMNSLRAEDTAVYYCAKHGGQKPTTKSSSAYGMDGWGQGTLVTVSS VL: QSVLTQPPSASGTPGQRVTISCSGSSSNIGNNYVTWYQQLPGTAPKLLIYADSHRPSGVPDRFSGSKSGTSASLAISGLRSEDEADYYCATWDYSLSGYVFGGGTKLTVLG | ~0.03 |  |  |  |
| 41B03 (antibody, human IgG4 S228P, V domains shown) VH: EVQLLESGGGLVQPGGSLRLSCAASGFTFSSNVMNWVRQAPGKGLEWVSEISHSGSTNYNPSLKSRFTISRDNSKNTLYLQMNSLRAEDTAVYYCAVGAGNLGYWGQGTLVTVSS VL: EIVLTQSPGTLSLSPGERATLSCQASQDISNYLNWYQQKPGQAPRLLIYGASSRATGIPDRFSGSGSGTDFTLTISRLEPEDFAVYYCQQYNSYPITFGQGTKLEIKR |  | 0.79 | 0.000597 | 755000 |
